Measured values taken from patent US20250332297A1, “DLL3-SPECIFIC BINDING CONSTRUCTS AND THEIR USE IN RADIOTHERAPY” (MOLECULAR PARTNERS AG, priority 2024, published 2025).

System: NCI-H82 tumors
Test: Efficacy (tumor growth) in NCI-H82 tumor model
Assay type: in vivo, mouse
Details: for Mean Diff.: Dunnett's multiple comparisons test, tumor volume in mm^3, NCI-H82, R2G2 mice
Protocol: To determine the efficacy of radio-labelled (Pb-212) DARPin (MAM279) conjugate in inhibiting the growth of tumors that express DLL3, different dose regimens (single or repeated dose) of the conjugate were tested in a relevant mouse tumor model (NCI-H82).
Animals were under observation daily and 3× per week tumors were measured by caliper. Animals were sacrificed when tumors reached 1500 to 2000 mm^3 or if termination criteria were met. The data were expressed as average+/−SEM of tumor volume in mm^3.
To determine the efficacy of more frequent repeat-dosing of radio-labelled (Pb-212) DARPin (MAM279) conjugate in inhibiting the growth of tumors that express DLL3, a weekly repeat-dosing regimen of the conjugate was tested in a relevant mouse tumor model (NCI-H82).
Corresponding injections of buffer only were done as control. The first weekly injection of radio-labeled molecules was done 14 days after xenografting the NCI-H82 cells. Animals were under observation daily and 3× per week tumors were measured by caliper. Animals were sacrificed when tumors reached 1500 to 2000 mm^3 or if termination criteria were met. The data were expressed as average+/−SEM of tumor volume in mm^3. Results are shown in FIGS. 20A to 20D and Table 23.

B1: MAM279 conjugate: SEQ ID NO: 15 conjugated to DOTAM-maleimide, labelled with Pb-212 (natural lead in PK studies) (conjugate)
chain: GSDLGKKLLEAARAGQDDEVRELLKAGADVNAKDYFSHTPLHLAARNGHLKIVEVLLKAGADVNAKDFAGKTPLHLAADAGHLEIVEVLLKAGADVNAQDIFGKTPADIAADAGHEDIAEVLQKAAGSPTPTPTTPTPTPTTPTPTPTGSDLGKKLLAAAAQGQDDEVRELLKAGANVNAKDLFGYTPLHLAAWRGHLEIVEVLLKAGADVNAKDAAGETPLHLAAWFGHLEIVEVLLKAGADVNAQDLQGKTPADLAAKEGHEDIAEVLQKAAGSGSC
modifications: DOTAM-maleimide, Pb-212 label; Ankyrin repeat protein with tag (GS-MAM279-tag)
Buffer only vs. (4 × 10μCi, 1 wk)
  Mean Diff.: 731.9
Buffer vs. conjugate (1 × 10μCi)
  Mean Diff.: 140.6
Buffer vs. conjugate (4 × 10μCi, injections 2 weeks apart)
  Mean Diff.: 429.7
Pb-212 labelled conjugate, 1×10 μCi or 4×10 μCi (2 weeks apart), in words
  efficacy in inhibiting the growth of NCI-H82 tumors: good efficacy
Both at 4×10 μCi, NCI-H82 tumors, in words
  potency versus benchmark antibody (Rova) conjugate: more potent than the benchmark antibody (Rova) conjugate
Four times weekly at 10 μCi, NCI-H82, day 63 post-tumor cell xenograft
  complete tumor regression: about 70 % of mice
Injected four times weekly at 10 μCi, in words
  efficacy in inhibiting the growth of NCI-H82 tumors: strong and statistically significant efficacy
